Test results reported in the supplement of paper PMC10126150.
± gives the standard deviation of the averaged measurements.

Tested on: ATP
Test: switch fluorescence ratio, 500 uM ATP over buffer (Cy3 cluster intensity, sum of 5 cycles each) (fold (ratio)); higher = stronger signal-on switching upon ATP binding; sequences stand for … in TCGTCGGCAGCGTCAGATGTGTATAAGAGACAGTTTTTTTTTTTTTTTTTTTTTTTTT…TC
Details: aptamer strand: ATP DNA aptamer (quencher-CACCTGGGGGAGTATTGCGGAGGAAGG + anchor), 100 nM annealed; ATP concentration: 500 uM
How it was run: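 Cy3-labelled switching-strand clusters on a modified Illumina MiSeq flow-cell were annealed to 100 nM quencher-labelled ATP aptamer, imaged in selection buffer, then imaged after 15 min with 500 uM ATP at 22 °C. Five buffer/ATP cycles ran, with NaOH stripping and re-annealing between them. The fluorescence ratio is summed target-cycle over summed buffer-cycle Cy3 intensity per cluster, averaged per switch-domain sequence. Clusters outside 100-1000 RFU were excluded.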
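Also: ATP exposure 15 min at 22 °C before imaging.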

Sequence	switch fluorescence ratio
ATGGACTGAA	0.992 ± 0.013
ATGGAGACGG	0.979 ± 0.019
ATGGAGCTAC	4.67 ± 1.3
ATGGAGGTTG	1.03 ± 0.022
ATGGAGTAAC	0.987 ± 0.011
ATGGATGCCT	1.01 ± 0.051
ATGGATGGGC	1.04 ± 0.057
ATGGCAGTGT	0.993 ± 0.018
ATGGCGAGGT	1.01 ± 0.059
ATGGCGATTG	0.996 ± 0.0078
ATGGCGTAGT	0.975 ± 0.036
ATGGCGTCCA	0.977 ± 0.045
ATGGCTGGGG	1 ± 0.019
ATGGCTGTCA	1.012 ± 0.0012
ATGGCTTGTC	1.03 ± 0.038
ATGGGAAAAA	1.01 ± 0.014
ATGGGAACCT	1.12 ± 0.18
ATGGGAAGTC	0.992 ± 0.024
ATGGGACAGC	0.975 ± 0.033
ATGGGAGAAG	0.95776 ± 0.00073
ATGGGAGTAG	0.9562 ± 0.0062
ATGGGATCTG	0.999 ± 0.025
ATGGGCAGAT	0.994 ± 0.071
ATGGGCATGG	1.04 ± 0.072
ATGGGCATTA	1 ± 0.017

Sequence	switch fluorescence ratio
ATGGGCCCGT	1.01 ± 0.1
ATGGGCGTAC	1.03 ± 0.054
ATGGGCGTAT	1.04 ± 0.017
ATGGGCTAGC	1.009 ± 0.0014
ATGGGCTCTT	1.04 ± 0.049
ATGGGGAATT	0.995 ± 0.035
ATGGGGAGAG	1.02 ± 0.028
ATGGGGAGGC	1.05 ± 0.051
ATGGGGATGG	0.978 ± 0.033
ATGGGGCACG	0.987 ± 0.037
ATGGGGGACT	1.02 ± 0.051
ATGGGGGCCT	1.02 ± 0.048
ATGGGGGGAC	0.987 ± 0.027
ATGGGGGGAG	0.997 ± 0.025
ATGGGGGGG	1.01 ± 0.014
ATGGGGGGGA	1.02 ± 0.027
ATGGGGGTGT	1.004 ± 0.0059
ATGGGGTAAC	0.969 ± 0.011
ATGGGGTCGG	1 ± 0.035
ATGGGGTGGT	0.993 ± 0.025
ATGGGGTT	0.992 ± 0.0053
ATGGGGTTCG	0.993 ± 0.035
ATGGGTACTG	0.963 ± 0.022
ATGGGTAGGG	0.967 ± 0.017
ATGGGTAGTG	0.984 ± 0.02

Sequence	switch fluorescence ratio
ATGGGTCCTG	0.979 ± 0.048
ATGGGTTACG	1 ± 0.033
ATGGGTTGAG	1.01 ± 0.0072
ATGGGTTTCT	0.989 ± 0.026
ATGGTAACGG	0.965 ± 0.042
ATGGTAATTT	0.977 ± 0.017
ATGGTAGCGC	1 ± 0.039
ATGGTAGTAT	0.986 ± 0.016
ATGGTAGTGC	0.986 ± 0.016
ATGGTATAGG	1.01 ± 0.032
ATGGTATATA	0.982 ± 0.025
ATGGTATGAA	0.979 ± 0.035
ATGGTCGCGC	0.993 ± 0.04
ATGGTCGGGG	0.995 ± 0.042
ATGGTCTTAT	0.997 ± 0.014
ATGGTGAGCG	0.978 ± 0.017
ATGGTGATAG	0.992 ± 0.011
ATGGTGGATT	0.965 ± 0.025
ATGGTGGCCG	0.997 ± 0.026
ATGGTGGGCT	0.9811 ± 0.0032
ATGGTGGGGG	0.995 ± 0.034
ATGGTGTACT	1.012 ± 0.0033
ATGGTGTTCG	0.987 ± 0.019
ATGGTGTTGC	0.964 ± 0.028
ATGGTTAAAG	0.996 ± 0.026

Sequence	switch fluorescence ratio
ATGGTTATGC	1.03 ± 0.051
ATGGTTCAAT	0.987 ± 0.029
ATGGTTCACT	1.023 ± 0.0032
ATGGTTCCCT	1.01 ± 0.02
ATGGTTGGGT	0.994 ± 0.012
ATGGTTGTGT	0.983 ± 0.034
ATGGTTTATG	0.9812 ± 0.0077
ATGGTTTGGT	0.997 ± 0.024
ATGGTTTTAA	1.03 ± 0.02
ATGGTTTTAG	0.993 ± 0.033
ATGTAAAAGT	0.986 ± 0.043
ATGTAATAGT	1.014 ± 0.0069
ATGTAATCTA	0.961 ± 0.036
ATGTAATTTG	0.988 ± 0.03
ATGTACTTGG	1.02 ± 0.013
ATGTAGAAAT	1.05 ± 0.039
ATGTAGCATA	1.57 ± 0.082
ATGTAGGCAG	0.961 ± 0.029
ATGTATAGCA	1 ± 0.041
ATGTATGGGC	0.9814 ± 0.0047
ATGTATGTAA	1.01 ± 0.018
ATGTATGTGG	0.987 ± 0.049
ATGTATTATA	1.01 ± 0.013
ATGTCAAGGG	0.9944 ± 0.0085
ATGTCACTTG	1.02 ± 0.018

Sequence	switch fluorescence ratio
ATGTCAGATT	1.01 ± 0.037
ATGTCAGGGT	0.9732 ± 0.0086
ATGTCATTGG	1.01 ± 0.024
ATGTCCAAGG	1.005 ± 0.0071
ATGTCCTGTG	1.01 ± 0.028
ATGTCGGCTT	1.03 ± 0.018
ATGTCGGTTT	1.02 ± 0.026
ATGTCGTGGC	1 ± 0.048
ATGTGATAGG	1.01 ± 0.058
ATGTGATAGT	0.98 ± 0.015
ATGTGCCAGT	0.962 ± 0.012
ATGTGCCTGT	0.9799 ± 0.0065
ATGTGCGCAC	1.002 ± 0.0023
ATGTGCTGGG	0.981 ± 0.031
ATGTGCTGGT	0.991 ± 0.021
ATGTGCTTAG	1.04 ± 0.084
ATGTGGACTG	1.05 ± 0.014
ATGTGGCGTC	1.01 ± 0.019
ATGTGGGGAG	0.9941 ± 0.002
ATGTGTAACA	0.97 ± 0.037
ATGTGTATCG	0.969 ± 0.039
ATGTGTATGG	0.998 ± 0.018
ATGTGTCGCG	0.9917 ± 0.0045
ATGTGTGAGG	1.01 ± 0.014
ATGTGTTACA	1.01 ± 0.03

Sequence	switch fluorescence ratio
ATGTTAGGCT	0.998 ± 0.025
ATGTTATTG	0.973 ± 0.031
ATGTTCCTAC	1.04 ± 0.011
ATGTTCGTTA	1.0123 ± 0.00085
ATGTTCTCAA	0.998 ± 0.01
ATGTTCTCCG	1.14 ± 0.035
ATGTTCTCGT	0.995 ± 0.021
ATGTTCTCTG	1.033 ± 0.0091
ATGTTGAAGG	1.03 ± 0.069
ATGTTGGGTA	0.982 ± 0.019
ATGTTGGGTG	1.02 ± 0.045
ATGTTGGTTT	0.996 ± 0.021
ATGTTGTATT	1.01 ± 0.052
ATGTTGTGCT	0.984 ± 0.045
ATGTTGTTTG	0.979 ± 0.014
ATGTTTATGA	0.981 ± 0.031
ATGTTTGAAG	0.9844 ± 0.0042
ATGTTTGATG	0.998 ± 0.024
ATGTTTGCCT	1.002 ± 0.0087
ATGTTTGGAG	0.982 ± 0.018
ATGTTTGGGC	0.9597 ± 0.0085
ATGTTTTATC	0.994 ± 0.016
ATGTTTTCGG	0.99 ± 0.044
ATTAAAAAAA	1.11 ± 0.18
ATTAAAAAAC	1.01 ± 0.016

Sequence	switch fluorescence ratio
ATTAAAATAT	1.12 ± 0.19
ATTAAACAG	1.05 ± 0.07
ATTAAACCAG	1.1 ± 0.11
ATTAAAGGTT	0.99 ± 0.022
ATTAAAGTAG	1.006 ± 0.0067
ATTAAATCCG	1.042 ± 0.0099
ATTAACGAGG	1.04 ± 0.013
ATTAACTTCG	0.983 ± 0.013
ATTAAGAAGG	1.002 ± 0.0095
ATTAAGGGGA	1.04 ± 0.049
ATTAATCAGT	1.002 ± 0.0083
ATTAATCCAT	0.987 ± 0.019
ATTAATGTGA	1 ± 0.031
ATTAATTGTG	1.01 ± 0.018
ATTACAAAAA	1.01 ± 0.014
ATTACCCGGA	1 ± 0.028
ATTACCGGCG	0.996 ± 0.025
ATTACGGAAA	1.74 ± 0.96
ATTACGGAAC	1.26 ± 0.018
ATTACGGCAC	2.09 ± 0.14
ATTACGGTCT	1.04 ± 0.02
ATTACGGTGG	1 ± 0.045
ATTACTGCAT	1.07 ± 0.059
ATTACTGGTG	1.1 ± 0.019
ATTACTTTTC	1.006 ± 0.0057

Sequence	switch fluorescence ratio
ATTAGAAAAG	0.991 ± 0.03
ATTAGACAGC	1.01 ± 0.032
ATTAGGAAAA	1.02 ± 0.025
ATTAGGATGT	0.9948 ± 0.0027
ATTAGGCGTG	0.987 ± 0.01
ATTAGGGAGC	0.989 ± 0.011
ATTAGGGCAT	1.006 ± 0.0075
ATTAGGGCCA	1.007 ± 0.0078
ATTAGGGGCC	0.976 ± 0.018
ATTAGGGGGA	1.03 ± 0.014
ATTAGGTGTT	1.03 ± 0.066
ATTAGTACTT	0.987 ± 0.015
ATTAGTAG	1.022 ± 0.0095
ATTAGTGATA	0.9756 ± 0.0025
ATTAGTTGTG	0.976 ± 0.011
ATTATAACAG	1.038 ± 0.009
ATTATAACTC	0.957 ± 0.036
ATTATACCTT	1.182 ± 0.011
ATTATAGTTG	1.039 ± 0.0094
ATTATATCGG	0.9981 ± 0.0031
ATTATATGGG	1.016 ± 0.0029
ATTATCAGCC	1.022 ± 0.0041
ATTATCGGGA	1.02 ± 0.0017
ATTATCGGTA	0.974 ± 0.058
ATTATCTGGT	1.02 ± 0.043
